Experimental data published in patent US20260265354A1 (JIANGSU MABWELL HEALTH PHARMACEUTICAL R AND D, published 2026).

T1: Nectin-like-2 (UniProt Q9BY67 45-374, limits assumed)
T1 construct: Bought recombinant protein; also called CADM1; IgSF4
T1 sequence (looked up): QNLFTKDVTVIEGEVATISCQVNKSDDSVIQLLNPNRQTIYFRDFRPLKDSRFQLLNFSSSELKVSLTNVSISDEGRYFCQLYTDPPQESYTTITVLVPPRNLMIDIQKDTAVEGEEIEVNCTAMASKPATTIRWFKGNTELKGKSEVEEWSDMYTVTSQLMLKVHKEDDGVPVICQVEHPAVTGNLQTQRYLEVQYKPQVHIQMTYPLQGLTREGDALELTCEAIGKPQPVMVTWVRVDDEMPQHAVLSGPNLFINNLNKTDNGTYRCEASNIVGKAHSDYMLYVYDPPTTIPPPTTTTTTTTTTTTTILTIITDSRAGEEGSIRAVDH

T2: Nectin-like-3 (UniProt Q8N3J6 25-367, limits assumed)
T2 construct: Bought recombinant protein; also called CADM2; IgSF4D
T2 sequence (looked up): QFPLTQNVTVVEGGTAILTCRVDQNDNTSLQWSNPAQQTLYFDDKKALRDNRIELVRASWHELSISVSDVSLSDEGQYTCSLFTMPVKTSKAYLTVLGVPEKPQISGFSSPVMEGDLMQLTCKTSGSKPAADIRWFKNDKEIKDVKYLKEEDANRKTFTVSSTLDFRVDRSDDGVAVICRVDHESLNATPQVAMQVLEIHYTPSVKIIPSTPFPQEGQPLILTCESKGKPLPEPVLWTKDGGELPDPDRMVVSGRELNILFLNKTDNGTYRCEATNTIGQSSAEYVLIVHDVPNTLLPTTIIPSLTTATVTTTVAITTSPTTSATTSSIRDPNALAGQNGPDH

T3: Nectin-like-4 (UniProt Q8NFZ8 21-324, limits assumed)
T3 construct: Bought recombinant protein; also called CADM4; IgSF4C
T3 sequence (looked up): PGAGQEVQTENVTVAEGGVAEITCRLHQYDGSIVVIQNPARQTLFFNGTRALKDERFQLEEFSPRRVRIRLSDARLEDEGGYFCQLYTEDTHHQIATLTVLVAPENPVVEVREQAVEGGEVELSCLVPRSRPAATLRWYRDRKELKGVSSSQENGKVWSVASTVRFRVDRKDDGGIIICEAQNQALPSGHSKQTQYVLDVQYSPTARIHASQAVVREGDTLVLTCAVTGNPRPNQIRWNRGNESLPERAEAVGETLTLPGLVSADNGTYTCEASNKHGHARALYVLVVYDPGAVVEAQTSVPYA

T4: recombinant human Nectin-4 protein (human, UniProt Q96NY8 32-349)
T4 construct: Prepared in-house (Jiangsu Mabwell) by transient transfection of CHO cells; also called PVRL-4; PRR-4
T4 sequence: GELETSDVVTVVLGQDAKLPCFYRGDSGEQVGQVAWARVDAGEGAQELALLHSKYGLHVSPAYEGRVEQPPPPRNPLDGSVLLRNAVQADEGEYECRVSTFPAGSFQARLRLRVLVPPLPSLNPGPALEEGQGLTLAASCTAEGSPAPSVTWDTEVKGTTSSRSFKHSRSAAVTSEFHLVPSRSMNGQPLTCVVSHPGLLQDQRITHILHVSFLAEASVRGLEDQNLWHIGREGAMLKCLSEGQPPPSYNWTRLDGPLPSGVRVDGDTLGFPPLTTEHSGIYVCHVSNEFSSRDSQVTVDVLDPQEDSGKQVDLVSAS

T5: Nectin-1 (UniProt Q15223 31-334, limits assumed)
T5 construct: Bought recombinant protein; also called CD111; PVRL-1
T5 sequence (looked up): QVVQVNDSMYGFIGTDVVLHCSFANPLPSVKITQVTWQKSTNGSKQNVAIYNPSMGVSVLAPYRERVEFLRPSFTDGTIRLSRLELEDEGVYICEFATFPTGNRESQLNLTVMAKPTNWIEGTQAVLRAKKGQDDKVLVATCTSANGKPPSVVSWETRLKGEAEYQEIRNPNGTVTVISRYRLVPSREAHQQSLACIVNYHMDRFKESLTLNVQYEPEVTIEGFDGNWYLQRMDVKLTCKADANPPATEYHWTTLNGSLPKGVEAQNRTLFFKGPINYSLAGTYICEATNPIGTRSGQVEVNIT

T6: Nectin-2 (UniProt Q92692 32-360, limits assumed)
T6 construct: Bought recombinant protein; also called CD112; PVRL-2
T6 sequence (looked up): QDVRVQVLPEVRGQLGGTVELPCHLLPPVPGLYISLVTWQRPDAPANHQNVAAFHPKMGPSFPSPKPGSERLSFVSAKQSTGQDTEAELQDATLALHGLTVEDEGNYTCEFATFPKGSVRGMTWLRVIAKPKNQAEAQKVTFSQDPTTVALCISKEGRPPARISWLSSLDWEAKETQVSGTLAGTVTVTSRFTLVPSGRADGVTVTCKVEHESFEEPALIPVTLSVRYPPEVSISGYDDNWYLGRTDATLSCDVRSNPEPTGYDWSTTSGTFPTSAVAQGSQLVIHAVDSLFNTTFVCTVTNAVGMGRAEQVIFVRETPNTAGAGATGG


Assays:
Test in all cases: ELISA, coated antigen, 0 ng/ml antibody (blank control)
Nectin-like-2 = target: T1, Nectin-like-2
Procedure: (§1) Coating: Nectin-1, Nectin-2, Nectin-3, Nectin-4, Nectin-like-1, Nectin-like-2, Nectin-like-3, Nectin-like-4, and Nectin-like-5 were diluted to 5 μg/ml in coating buffer (carbonate buffer, pH 9.6) respectively. A 96-well plate was coat with 100 μl per well and incubated overnight at 2-8° C.;
(§2) Sample loading: The plate was taken out, patted dry, and washed twice with 200 μl/well of PBST, then patted dry. The Nectin-4 antibodies prepared in Example 1 (antibody MM11, antibody R012, and antibody R036) were diluted with 1% BSA/PBST to concentrations of 10 μg/ml, 1 μg/ml, 100 ng/ml, and 10 ng/ml, respectively. 1% BSA/PBST solution for dilution was set as a blank control. 100 μl per well was added to the 96-well plate, and incubated at room temperature for 2 hours;
(§3) Reaction termination and plate reading: 100 μl/well of 1 mol/L H3PO4 was added to terminate the reaction and the plated was read. The absorbances of wells in the plate at 450 nm with 650 nm as reference wavelength were read and recorded as OD_{450 nm-650 nm}.

Nectin-like-3 = target: T2, Nectin-like-3
Procedure: as §1, §2, §3

Nectin-like-4 = target: T3, Nectin-like-4
Procedure: as §1, §2, §3

[1] = target: T4, recombinant human Nectin-4 protein
Procedure: as §1, §2, §3

Nectin-1 = target: T5, Nectin-1
Procedure: as §1, §2, §3

Nectin-2 = target: T6, Nectin-2
Procedure: as §1, §2, §3

Nectin-3 = target: T7, Nectin-3 (UniProt Q9NQS3 58-404, limits assumed)
T7 construct: Bought recombinant protein; also called CD113; PVRL-3
Procedure: as §1, §2, §3

T7 sequence (Q9NQS3 58-404 limits assumed): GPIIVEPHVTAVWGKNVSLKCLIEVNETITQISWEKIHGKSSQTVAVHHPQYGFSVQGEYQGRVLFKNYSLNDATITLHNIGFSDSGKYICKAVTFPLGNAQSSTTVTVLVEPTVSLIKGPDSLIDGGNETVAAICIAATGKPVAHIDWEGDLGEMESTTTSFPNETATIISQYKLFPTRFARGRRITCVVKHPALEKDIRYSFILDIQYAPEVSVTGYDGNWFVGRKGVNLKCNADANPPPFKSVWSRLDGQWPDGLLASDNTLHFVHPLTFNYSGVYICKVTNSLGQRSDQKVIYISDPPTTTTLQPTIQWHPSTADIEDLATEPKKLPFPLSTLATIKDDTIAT

Row | Binder | OD detection value (Nectin-like-2) [OD450 nm-650 nm] | OD detection value (Nectin-like-3) [OD450 nm-650 nm] | OD detection value (Nectin-like-4) [OD450 nm-650 nm] | OD detection value [1] [OD450 nm-650 nm] | OD detection value (Nectin-1) [OD450 nm-650 nm] | OD detection value (Nectin-2) [OD450 nm-650 nm] | OD detection value (Nectin-3) [OD450 nm-650 nm]
1 | Antibody R012 (antibody, V domains shown, Rabbit monoclonal antibody from phage display; also called Nectin-4 rabbit monoclonal antibody R012; rabbit antibody R012) VH: SKSVEESGGRLVTPGTPLTLTCTVSGFSLSTYAMSWVRQAPGKGLEYIGIISGRGTTYYASWLKGRFTISKTSTTVDLKITSPTTEDTATYFCARDAGISDVYTGYFNLWGQGTLVTVSS VL: QPVLAQLPSASAALGASAKLTCTLSSAHRTYTIAWYQQQQGEAPRYLMMLKSDGSYTKGTGVPDRFSGSSSGADRYLIISSVQAADEADYYCGADDSGGYVFGGGTQLTVTG | 0.008 | 0.008 | 0.008 | 0.008 | 0.007 | 0.009 | 0.008
2 | Antibody R036 (antibody, V domains shown, Rabbit monoclonal antibody from phage display; also called Nectin-4 rabbit monoclonal antibody R036; rabbit antibody R036) VH: SQSVEESGGRLVTPGTPLTLTCTVSGFSLSSYAMSWVRQAPGKGLEYIGIIGGRGTTYYAIWAKGRFTISKTSTTVDLKITSPTTEDTATYFCARDAGTTYVGTTYVATGYFNLWGQGTLVTVSS VL: QPVLTQPPSASAALGASAKLTCTLSSAHKTYTIAWYQQQQGEAPRYLMILKSDGSYTRGTGVPDRFSGSSSGADRYLIISSVQADDEADYYCGADDSGGYVFGGGTQLTVTG | 0.007 | 0.007 | 0.007 | 0.007 | 0.007 | 0.007 | 0.007
3 | Antibody MM11 (antibody, mouse IgG1, kappa, V domains shown, Mouse monoclonal antibody from hybridoma; also called Nectin-4 mouse monoclonal antibody MM11; mouse antibody MM11) VH: DVQLQESGPGLVKPSQSLSLTCSVTGYSITSNFYWNWIRQFPGNRLEWMGYISYDGSNNYNPSLKNRISISRDTSKNQFFLKLNSVTTEDTATYYCVRADYWGQGTLVTVSA VL: DTVMTQTPLSLPVSLGDQASISCRSSQSLESSDGHAYLNWYLQKPGQSPQLLIYRVSNRFSGVLHRFSGSGSGTDFTLKISRVEAEDLGVYFCLQFTHVPFTFGSGTKLEIKR | 0.006 | 0.027 | 0.008 | 0.008 | 0.005 | 0.007 | 0.006
